Results as given in patent publication US20040156847A1.

Biological target: human CD30 expressed on human peripheral blood eosinophils (human) (UniProt P28908)
Assay: cell-based or functional assay

UniProt P28908, sequence (P28908 19-595): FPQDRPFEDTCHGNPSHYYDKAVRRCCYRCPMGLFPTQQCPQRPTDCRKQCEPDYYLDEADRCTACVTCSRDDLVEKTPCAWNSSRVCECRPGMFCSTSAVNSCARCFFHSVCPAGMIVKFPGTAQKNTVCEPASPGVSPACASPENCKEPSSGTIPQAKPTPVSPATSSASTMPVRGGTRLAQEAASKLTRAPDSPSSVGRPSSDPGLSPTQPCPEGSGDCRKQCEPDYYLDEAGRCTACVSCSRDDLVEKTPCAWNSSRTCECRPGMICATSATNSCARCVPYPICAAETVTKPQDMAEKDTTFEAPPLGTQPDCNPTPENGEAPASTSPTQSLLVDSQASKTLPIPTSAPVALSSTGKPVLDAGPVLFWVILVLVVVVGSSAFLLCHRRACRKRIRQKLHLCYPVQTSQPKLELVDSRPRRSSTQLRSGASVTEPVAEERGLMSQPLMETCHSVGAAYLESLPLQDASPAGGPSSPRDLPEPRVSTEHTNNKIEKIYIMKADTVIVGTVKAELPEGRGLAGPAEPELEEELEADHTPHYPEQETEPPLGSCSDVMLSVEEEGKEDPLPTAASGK

| Substance | apoptosis of human peripheral blood eosinophils (FITC-Annexin V, flow cytometry), antibody immobilized at 1 µg/ml, 4 hours | apoptosis of human peripheral blood eosinophils (FITC-Annexin V, flow cytometry), antibody immobilized at 10 µg/ml, 4 hours | apoptosis of human peripheral blood eosinophils after 1 hour, antibody immobilized at 10 µg/ml | apoptosis of human peripheral blood eosinophils after 1 hour, antibody immobilized at 10 µg/ml (comparison with anti-Fas CH-11) | apoptosis of human peripheral blood eosinophils after 4 hours, antibody immobilized at 10 µg/ml | apoptosis of human peripheral blood eosinophils after 4 hours, antibody immobilized at 10 µg/ml (comparison with anti-Fas CH-11) | apoptosis of human peripheral blood eosinophils after 4 hours, antibody immobilized on polystyrene microbeads | apoptosis of human peripheral blood eosinophils after 4 hours, ligand immobilized at 10 µg/ml | apoptosis of human peripheral blood eosinophils after 4 hours, ligand immobilized at 100 µg/ml | apoptosis of human peripheral blood eosinophils (FITC-Annexin V, flow cytometry), antibody immobilized at 0.01 µg/ml, 4 hours | apoptosis of human peripheral blood eosinophils (FITC-Annexin V, flow cytometry), antibody immobilized at 0.1 µg/ml, 4 hours |
| --- | --- | --- | --- | --- | --- | --- | --- | --- | --- | --- | --- |
| mouse anti-human CD30 monoclonal antibody HRS-4 (Immunotech, Marseilles, France) | 16.3% | 78.8% | 50% | 50% | 70% | 70% | 27.9% |  |  |  |  |
| recombinant mouse CD30 ligand (R&D Systems Inc. Minneapolis, USA) (from UniProt P32972 68-239) |  |  |  |  |  |  |  | 28% | 35% |  |  |
| mouse anti-human CD30 monoclonal antibody Ber-H8 (PharMingen, San Diego, Calif.) | 44.8% | 71.9% | 50% | 50% | 70% | 70% | 44% |  |  | 7.8% | 11.4% |
| anti-mouse CD30 monoclonal antibody YMSM636.4.10 (Serotec Ltd, Oxford UK) |  |  |  |  | 30% |  |  |  |  |  |  |
